Blank lines part the entries; values can stand above or below the binder they belong to.
What was measured:
[1] = target: hCG receptor on MA-10 cells (transformed murine Leydig cells) (murine, UniProt P30730 27-700); experiment: cell-based or functional assay
[2] = target: human TSH receptor on CHO cells (CHO-hTSHR clone JP09) (human, UniProt P16473 21-764); experiment: cell-based or functional assay

Chain of hCG receptor on MA-10 cells (transformed murine Leydig cells) (P30730 27-700): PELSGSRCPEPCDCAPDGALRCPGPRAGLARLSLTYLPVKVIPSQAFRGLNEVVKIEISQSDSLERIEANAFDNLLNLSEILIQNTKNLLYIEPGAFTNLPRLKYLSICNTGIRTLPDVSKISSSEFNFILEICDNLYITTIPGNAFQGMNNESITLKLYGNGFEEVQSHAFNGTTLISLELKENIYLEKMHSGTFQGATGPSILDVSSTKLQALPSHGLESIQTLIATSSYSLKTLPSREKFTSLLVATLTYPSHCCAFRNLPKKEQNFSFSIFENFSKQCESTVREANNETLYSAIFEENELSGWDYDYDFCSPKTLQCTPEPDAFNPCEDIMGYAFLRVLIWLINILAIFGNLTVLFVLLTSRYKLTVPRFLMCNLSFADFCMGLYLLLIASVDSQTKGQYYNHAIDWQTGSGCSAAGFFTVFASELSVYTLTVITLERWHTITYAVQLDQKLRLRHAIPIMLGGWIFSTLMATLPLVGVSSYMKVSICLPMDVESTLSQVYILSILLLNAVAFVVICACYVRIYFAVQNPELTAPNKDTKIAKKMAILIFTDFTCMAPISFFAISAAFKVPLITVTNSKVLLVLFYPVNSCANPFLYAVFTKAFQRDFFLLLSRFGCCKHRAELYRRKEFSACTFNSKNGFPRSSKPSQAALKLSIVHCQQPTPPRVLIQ

Progesterone synthesis in MA 10 cells, EC50 [1]: 6.9 ng/mL
B1: WT-hCG (wild-type recombinant human chorionic gonadotropin) (ligand)
chain 1: not shown
chain 2: SKEPLRPRCRPINATLAVEKEGCPVCITVNTTICAGYCPTMTRVLQGVLPALPQVVCNYRDVRFESIRLPGCPRGVNPVVSYAVALSCQCALCRRSTTDCGGPKDHPLTCDDPRFQDSSSSKAPPPSLPSPSRLPGPSDTPILPQ

cAMP stimulation in JP09 cells, EC50 [2]: 6.7 ng/mL | cAMP stimulation in JP09 cells, relative potency (WT=1) [2]: 1 fold (WT=1)
B2: WT-hTSH (wild-type recombinant human thyroid stimulating hormone) (ligand)
chain 1: not shown
chain 2: FCIPTEYTMHIERRECAYCLTINTTICAGYCMTRDINGKLFLPKYALSQDVCTYRDFIYRTVEIPGCPLHVAPYFSYPVALSCKCGKCNTDYSDCIHEAIKTNYCTKPQKSY

— EP1947117A2 (THE UNITED STATES GOVERNMENT as represented by THE …, dated 2008)
